# Assay results: paper PMC6607443 (2019)
# Biological target: dynein light chain LC8 (UniProt P63167 1-89)
# Experiment: ITC
# Sequence of dynein light chain LC8 (P63167 whole entry): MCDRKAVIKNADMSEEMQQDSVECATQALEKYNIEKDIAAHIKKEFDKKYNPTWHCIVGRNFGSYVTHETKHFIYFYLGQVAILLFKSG
row,Binder,Kd [nM]
1,"PRATAEFSTQTPSP [bassoon (BSN) peptide, modified version with the TQT motif near the C-terminus]",6300
2,YGCTRHQSVQTEDG [MAST1 peptide],1700
3,YDSMDHLDKQTQTPKT [CCL2 peptide],4700
4,QDFMKHLDKKTQTPKL [CCL7 peptide],2800
5,SEIHGISRMTQTPQ [RavL peptide],8000
6,DDHSREKGTQTSGD [SLC9A2 peptide],2200
7,APMSCDKSTQTPSP [BCL2L11 peptide],200
8,HPETQDSSTQTDTS [SPAG5 peptide],1300
9,PVLTSATGTQTSPA [MUC3A peptide],4500
10,SSSTRSIDTQTPSV [GLCCI1 peptide],4900
11,ARAGRSVSTQTGSM [CIZ1 peptide],800
12,PAPPSYSDKGVQTPSK [ZFPM1 peptide],1600
13,EKELRHIGTQISSD [ICE1 peptide],3600
14,NQSFTTASTQTPPQ [CAPRIN2 peptide],2600
